The source of these data is US20120316071A1 (published 2012).

Positions count from the first letter of the chain named. Names and notes keep the numbering of the source.

The target of assay [1] is T1, rHuman P-Cadherin/Fc Chimera, CF (R&D Systems Cat#861-PC) (human, UniProt P22223 108-654).
T1 construct: Bought reagent
Nature of the assay: ECL multispot (MSD), antigen spotted, Fab in solution; blank spot 272.

Assay [2] addresses T2, rHuman Notch-1/Fc Chimera, CF (R&D Systems Cat#3647-TK) (human, UniProt P46531 19-526).
T2 construct: Bought reagent
The assay is described as above.

Assay [3] addresses T3, rHuman Erythropoietin R/Fc Chimera, CF (R&D Systems Cat#963-ER) (human, UniProt P19235 25-250).
T3 construct: Bought reagent; also called EPO R; Epo R/Fc
T3 sequence (looked up): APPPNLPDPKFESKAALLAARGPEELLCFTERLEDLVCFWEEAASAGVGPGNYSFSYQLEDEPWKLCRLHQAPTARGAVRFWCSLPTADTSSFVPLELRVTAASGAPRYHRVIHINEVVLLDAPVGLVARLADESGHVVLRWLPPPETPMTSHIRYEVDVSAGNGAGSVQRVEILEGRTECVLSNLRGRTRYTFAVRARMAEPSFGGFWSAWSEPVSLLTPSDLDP
Described as above.

For assay [4], the target named is T4, rHuman EGF R/Fc Chimera, CF (R&D Systems Cat#344-ER) (human, UniProt P00533 25-645).
T4 construct: Bought reagent
The assay is described as above.

In assay [5] the target is T5, rHuman IGF-1 sR (insulin-like growth factor-1 soluble receptor), CF (R&D Systems Cat#391-GR) (human, UniProt P08069 31-932).
T5 construct: Bought soluble receptor
The description is as above.

In assay [6] the target is T6, rHuman HGF R/c-MET/Fc Chimera, CF (R&D Systems Cat#358-MT/CF) (human, UniProt P08581 25-932).
T6 construct: Bought reagent; also called HGF R/Fc
The description is as above.

Assay [7] addresses T7, Recombinant Human DLL4 (R&D Systems Cat#1506-D4/CF) (human, UniProt Q9NR61 27-524).
T7 construct: Bought recombinant protein; also called delta-like protein 4; rHuman DLL4
The assay is described as above.

In assay [8] the target is T8, rHuman ErbB2/Fc Chimera, CF (R&D Systems Cat#1129-ER) (human, UniProt P04626 23-652).
T8 construct: Bought reagent
The assay is described as above.

Assay [9] deals with T9, rHuman CD44/Fc Chimera, CF (R&D Systems Cat#3660-CD) (human, UniProt P16070 21-220).
T9 construct: Bought reagent
Described as above.

Assay [10] deals with T10, rHuman P-Cadherin/Fc Chimera, CF (R&D Systems Cat#861-PC) (human, UniProt P22223 108-654).
T10 construct: Bought recombinant protein; Fc part of the bought chimera not given
Nature of the assay: ECL multispot (MSD) assay, antigen spotted on plate; blank spot of this row 302.

For assay [11], the target named is T11, rHuman Erythropoietin R/Fc Chimera, CF (R&D Systems Cat#963-ER) (human, UniProt P19235 25-250).
T11 construct: Bought recombinant protein; also called EPO R; EPO R/Fc; Fc part of the bought chimera not given
T11 sequence (looked up): T3 sequence (looked up)
The description is as above.

Assay [12] concerns the target T12, rHuman ErbB2/Fc Chimera, CF (R&D Systems Cat#1129-ER) (human, UniProt P04626 23-652).
T12 construct: Bought recombinant protein; also called human epidermal growth factor 2 receptor; Fc part of the bought chimera not given
The description is as above.

Assay [13] concerns the target T13, rHuman EGF R/Fc Chimera, CF (R&D Systems Cat#344-ER) (human, UniProt P00533 25-645).
T13 construct: Bought recombinant protein; also called epidermal growth factor receptor; Fc part of the bought chimera not given
The description is as above.

In assay [14] the target is T14, rHuman HGF R/c-MET/Fc Chimera, CF (R&D Systems Cat#358-MT/CF) (human, UniProt P08581 25-932).
T14 construct: Bought recombinant protein; also called HGF R/Fc; hepatocyte growth factor receptor; Fc part of the bought chimera not given
The assay is described as above.

In assay [15] the target is T15, rHuman IGF-1 sR, (IGF-1 sR), CF (R&D Systems Cat#391-GR) (human, UniProt P08069 31-932).
T15 construct: Bought recombinant soluble receptor; also called insulin-like growth factor-1 soluble receptor
Described as above.

The target of assay [16] is T16, rHuman CD44/Fc Chimera, CF (R&D Systems Cat#3660-CD) (human, UniProt P16070 21-220).
T16 construct: Bought recombinant protein; Fc part of the bought chimera not given
Described as above.

The target in assay [17] is T17, rHuman Notch-1/Fc Chimera, CF (R&D Systems Cat#3647-TK) (human, UniProt P46531 19-526).
T17 construct: Bought recombinant protein; Fc part of the bought chimera not given
The description is as above.

The target in assay [18] is T18, Recombinant Human DLL4 (R&D Systems Cat#1506-D4/CF) (human, UniProt Q9NR61 27-524).
T18 construct: Bought recombinant protein; also called delta-like protein 4; rHuman DLL4
Described as above.

Assay [19] has as its target T1, rHuman P-Cadherin/Fc Chimera, CF (R&D …). Nature of the assay: ECL multispot (MSD), antigen spotted, Fab in solution; blank spot 352.
The target in assay [20] is T2, rHuman Notch-1/Fc Chimera, CF (R&D …). The description is as above.
Assay [21] has as its target T3, rHuman Erythropoietin R/Fc Chimera, CF …. The assay is described as above.
Assay [22] has as its target T4, rHuman EGF R/Fc Chimera, CF (R&D …). The assay is described as above.
In assay [23] the target is T5, rHuman IGF-1 sR (insulin-like growth …). The assay is described as above.
Assay [24] addresses T6, rHuman HGF R/c-MET/Fc Chimera, CF (R&D …). The assay is described as above.
Assay [25] deals with T7, Recombinant Human DLL4 (R&D Systems …). The description is as above.
Assay [26] has as its target T8, rHuman ErbB2/Fc Chimera, CF (R&D …). Described as above.
In assay [27] the target is T9, rHuman CD44/Fc Chimera, CF (R&D Systems …). Described as above.
Assay [28] addresses T10, rHuman P-Cadherin/Fc Chimera, CF (R&D …). The assay is described as follows: ECL multispot (MSD) assay, antigen spotted on plate; blank spot of this row 351.
Assay [29] concerns the target T11, rHuman Erythropoietin R/Fc Chimera, CF …. The assay is described as above.
In assay [30] the target is T12, rHuman ErbB2/Fc Chimera, CF (R&D …). The description is as above.
The target of assay [31] is T13, rHuman EGF R/Fc Chimera, CF (R&D …). The assay is described as above.
Assay [32] concerns the target T14, rHuman HGF R/c-MET/Fc Chimera, CF (R&D …). Described as above.
Assay [33] addresses T15, rHuman IGF-1 sR, (IGF-1 sR), CF (R&D …). The description is as above.
Assay [34] addresses T16, rHuman CD44/Fc Chimera, CF (R&D Systems …). Described as above.
In assay [35] the target is T17, rHuman Notch-1/Fc Chimera, CF (R&D …). The assay is described as above.
In assay [36] the target is T18, Recombinant Human DLL4 (R&D Systems …). The description is as above.

B1: Fab VH1-46_IGHD6-6*01_IGHJ1*01 S102A/S103P/S104F/H111F (APFF) & L6_IGKJ1*01 S30G (Fab, V domains shown)
VH: QVQLVQSGAEVKKPGASVKVSCKASGYTFTSYYMHWVRQAPGQGLEWMGIINPSGGSTSYAQKFQGRVTMTRDTSTSTVYMELSSLRSEDTAVYYCAREEYAPFSAEYFQFWGQGTLVTVSS
VL: EIVLTQSPATLSLSPGERATLSCRASQSVGSYLAWYQQKPGQAPRLLIYDASNRATGIPARFSGSGSGTDFTLTISSLEPEDFAVYYCQQRSNWPPWTFGQGTKVEIKR
notes: Tested as Fab made in E. coli: VH joined to CH1 from Plasmid A (His6 and Flag tags), VL joined to kappa CL from Plasmid C; also called APFF / S30G
As for B1, the ECL signal in assay [1] amounted to 369; in assay [2], 382; in assay [3], 485; in [4] it was 387; in assay [5], 393; in [6], 355. The ECL signal was 180000 in [7], 404 in assay [8] and 427 in [9].

B2: Fab VH1-46_IGHD6-6*01_IGHJ1*01 S102A/S103P/S104F/H111F (APFF) & L6_IGKJ1*01 S30P (Fab, V domains shown)
VH: B1 VH
VL: B1 VL with G30P
notes: Fab made in E. coli: VH cloned into Plasmid A (CH1, His6 and Flag tags), kappa VL into Plasmid C (kappa CL); also called APFF / S30P
With B2, the ECL signal in assay [10] was 413; in assay [11], 418; in [12] it was 358; in assay [13], 385; in [14], 383; in assay [15] it was 312. The results for the ECL signal in assay [16], in assay [17] and in [18] were 411, 346 and 1260, respectively.

B3: Fab VH1-46_IGHD6-6*01_IGHJ1*01 S102A/S103P/S104F/H111F (APFF) & L6_IGKJ1*01 S30N (Fab, V domains shown)
VH: B1 VH
VL: B1 VL with G30N
notes: Tested as Fab made in E. coli: VH joined to CH1 from Plasmid A (His6 and Flag tags), VL joined to kappa CL from Plasmid C; also called APFF / S30N
As to B3, the ECL signal in [19] stood at 396; in assay [20], 296; in assay [21], 525; in [22], 400; in assay [23] it was 362; in [24], 297. The ECL signal in assay [25] was 175000; in assay [26], 241; in assay [27], 437.

B4: Fab VH1-46_IGHD6-6*01_IGHJ1*01 S102A/S103P/S104F/H111F (APFF) & L6_IGKJ1*01 S30G (Fab, V domains shown)
VH: B1 VH
VL: B1 VL
notes: Fab made in E. coli: VH cloned into Plasmid A (CH1, His6 and Flag tags), kappa VL into Plasmid C (kappa CL); also called APFF / S30G
Regarding B4, the ECL signal worked out at 397 in assay [28]; 480 in assay [29]; 260 in assay [30]; 298 in [31]; 263 in [32]; 304 in assay [33]. The results for the ECL signal in assay [34], in assay [35] and in [36] were 343, 346 and 178000, respectively.
